Tests used:
Type in all cases: in vivo
[1] = test system: non-human primates (cynomolgus monkey); assay: Example 22: NHP hematology: neutrophils, reticulocytes, HGB, HCT, RBC (Tables 40-44); settings: for Female NHP HGB / Female NHP Neutrophils / Male NHP HGB / Male NHP Neutrophils: 0.5 mg/kg IV
Procedure: LNP formulations, shown in Table 33 (above), were administered to non-human primates (NHP) (cynomolgus monkey) (n=2) as intravenous injection (IV). The NHP were administered a single modified mRNA IV dose of 0.5 mg/kg, 0.05 mg/kg or 0.005 mg/kg of G-CSF or EPO in a dose volume of 0.5 mL/kg. The NHPs were bled before dosing with the modified mRNA LNP formulations to determine protein expression in the serum and a baseline complete blood count. After administration with the G-CSF modified mRNA formulation the NHP were bled at 8, 24, 48 and 72 hours to determined protein expression. After administration with the EPO modified mRNA formulation the NHP were bled at 8, 24, 48, 72 hours and 7 days to determined protein expression.
Samples collected from the NHPs after they were administered with G-CSF or EPO modified mRNA formulations were analyzed by ELISA to determine protein expression. Neutrophil and reticulocyte count was also determined pre-dose, 24 hours, 3 days, 7 days, 14 days and 18 days after administration of the modified G-CSF or EPO formulation.

Sprague-Dawley rats = assay: Example 34: EPO mRNA in buffer IM in rats, serum EPO (Table 59); settings: 13 hours post injection
mice [2] = assay: Example 42A: G-CSF/EPO mRNA in buffer IM in mice, serum protein at 13 hours (Table 67); settings: EPO group: human EPO in mouse serum, IM 100 ug
Procedure: The mice were bled at 13 hours after the injection to determine the concentration of the human polypeptide in serum in pg/mL (G-CSF groups measured human G-CSF in mouse serum and EPO groups measured human EPO in mouse serum).

mice [3] = assay: Example 65: G-CSF/EPO mRNA in saline in mice, serum protein at 13 hours (Table 97); settings: EPO group; 100 ug, 100 μl/mouse, F. buffer, 13 hours after injection
Procedure: The mice were bled at 13 hours after the injection to determine the concentration of the human polypeptide in serum in pg/mL. (G-CSF groups measured human G-CSF in mouse serum and EPO groups measured human EPO in mouse serum).

[4] = 0.05 mg/kg, Pre-dose, Female NHP
[5] = 0.5 mg/kg, 14/18 days, Female NHP
[6] = 0.5 mg/kg, 14/18 days, Male NHP
[7] = 0.5 mg/kg, 24 hours, Female NHP
[8] = 0.5 mg/kg, Pre-dose, Female NHP

B1: EPO: modified mRNA encoding human erythropoietin, SEQ ID NO: 7, Cap1, fully modified with 5-methylcytosine and pseudouridine; LNP NPA-060-1 in Examples 17-22 (nucleic acid)
chain: GGGAAAUAAGAGAGAAAAGAAGAGUAAGAAGAAAUAUAAGAGCCACCAUGGGAGUGCACGAGUGUCCCGCGUGGUUGUGGUUGCUGCUGUCGCUCUUGAGCCUCCCACUGGGACUGCCUGUGCUGGGGGCACCACCCAGAUUGAUCUGCGACUCACGGGUACUUGAGAGGUACCUUCUUGAAGCCAAAGAAGCCGAAAACAUCACAACCGGAUGCGCCGAGCACUGCUCCCUCAAUGAGAACAUUACUGUACCGGAUACAAAGGUCAAUUUCUAUGCAUGGAAGAGAAUGGAAGUAGGACAGCAGGCCGUCGAAGUGUGGCAGGGGCUCGCGCUUUUGUCGGAGGCGGUGUUGCGGGGUCAGGCCCUCCUCGUCAACUCAUCACAGCCGUGGGAGCCCCUCCAACUUCAUGUCGAUAAAGCGGUGUCGGGGCUCCGCAGCUUGACGACGUUGCUUCGGGCUCUGGGCGCACAAAAGGAGGCUAUUUCGCCGCCUGACGCGGCCUCCGCGGCACCCCUCCGAACGAUCACCGCGGACACGUUUAGGAAGCUUUUUAGAGUGUACAGCAAUUUCCUCCGCGGAAAGCUGAAAUUGUAUACUGGUGAAGCGUGUAGGACAGGGGAUCGCUGAUAAGCUGCCUUCUGCGGGGCUUGCCUUCUGGCCAUGCCCUUCUUCUCUCCCUUGCACCUGUACCUCUUGGUCUUUGAAUAAAGCCUGAGUAGGAAG
modifications: Cap1, 5-methylcytosine, pseudouridine
[1]; 0.05 mg/kg, 24 hours, Male NHP
  RBC: 5.25 10^12/L
[1]; 0.05 mg/kg, 3 days, Female NHP
  HCT: 0.4 L/L
  RBC: 5.16 10^12/L
[1]; 0.05 mg/kg, 3 days, Male NHP
  HCT: 0.38 L/L
  RBC: 4.81 10^12/L
[1]; 0.05 mg/kg, 7 days, Female NHP
  HCT: 0.41 L/L
  RBC: 5.31 10^12/L
[1]; 0.05 mg/kg, 7 days, Male NHP
  HCT: 0.45 L/L
  RBC: 5.37 10^12/L
[1]; [4]
  HCT: 0.43 L/L
  RBC: 5.84 10^12/L
[1]; 0.05 mg/kg, Pre-dose, Male NHP
  HCT: 0.45 L/L
  RBC: 5.57 10^12/L
[1]; 14/18 days
  Female NHP HGB: 133 g/L
  Female NHP Neutrophils: 2.36 10^9/L
  Male NHP HGB: 146 g/L
  Male NHP Neutrophils: 7.16 10^9/L
[1]; 24 hours
  Female NHP HGB: 108 g/L
  Female NHP Neutrophils: 11.85 10^9/L
  Male NHP HGB: 127 g/L
  Male NHP Neutrophils: 7.5 10^9/L
[1]; 3 days
  Female NHP HGB: 120 g/L
  Female NHP Neutrophils: 5.22 10^9/L
  Male NHP HGB: 126 g/L
  Male NHP Neutrophils: 11.07 10^9/L
[1]; 7 days
  Female NHP HGB: 134 g/L
  Female NHP Neutrophils: 2.85 10^9/L
  Male NHP HGB: 140 g/L
  Male NHP Neutrophils: 11.8 10^9/L
[1]; Pre-dose
  Female NHP HGB: 123 g/L
  Female NHP Neutrophils: 1.82 10^9/L
  Male NHP HGB: 134 g/L
  Male NHP Neutrophils: 9.72 10^9/L
[1]; [5]
  HCT: 0.46 L/L
  RBC: 5.72 10^12/L
[1]; [6]
  HCT: 0.48 L/L
  RBC: 5.83 10^12/L
[1]; [7]
  HCT: 0.36 L/L
  RBC: 4.69 10^12/L
[1]; 0.5 mg/kg, 24 hours, Male NHP
  HCT: 0.4 L/L
  RBC: 5.12 10^12/L
[1]; 0.5 mg/kg, 3 days, Female NHP
  HCT: 0.39 L/L
  RBC: 5.15 10^12/L
[1]; 0.5 mg/kg, 3 days, Male NHP
  HCT: 0.41 L/L
  RBC: 5.13 10^12/L
[1]; 0.5 mg/kg, 7 days, Female NHP
  HCT: 0.45 L/L
  RBC: 5.68 10^12/L
[1]; 0.5 mg/kg, 7 days, Male NHP
  HCT: 0.45 L/L
  RBC: 5.55 10^12/L
[1]; [8]
  HCT: 0.4 L/L
  RBC: 5.26 10^12/L
[1]; 0.5 mg/kg, Pre-dose, Male NHP
  HCT: 0.44 L/L
  RBC: 5.43 10^12/L
[1]; all dose groups
  reticulocytes 3 days to 14/18 days after dosing relative to 24 hours after dosing: increase in reticulocytes
[1]; cynomolgus monkey, in vivo
  effect on hemoglobin (HGB), hematocrit (HCT) and red blood cell (RBC) count: had an effect
Sprague-Dawley rats; dose 1 μg
  human EPO in serum, Avg.: 28.7 pg/mL
  human EPO in serum, Geometric-mean: 25.4 pg/mL
Sprague-Dawley rats; dose 10 μg
  human EPO in serum, Avg.: 46.3 pg/mL
  human EPO in serum, Geometric-mean: 31.2 pg/mL
Sprague-Dawley rats; dose 50 μg
  human EPO in serum, Avg.: 101.5 pg/mL
  human EPO in serum, Geometric-mean: 85.4 pg/mL
Sprague-Dawley rats; dose 100 μg
  human EPO in serum, Avg.: 79.4 pg/mL
  human EPO in serum, Geometric-mean: 66.9 pg/mL
Sprague-Dawley rats; dose 150 μg
  human EPO in serum, Avg.: 67.7 pg/mL
  human EPO in serum, Geometric-mean: 67.1 pg/mL
Mice [2]
  Average Protein Product, serum: 191.5 pg/mL
Mice [3]
  Average Protein Product, serum (human EPO): 72.03 pg/mL

Reference: patent US20190142971A1, “FORMULATION AND DELIVERY OF MODIFIED NUCLEOSIDE, NUCLEOTIDE, AND NUCLEIC ACID COMPOSITIONS” (ModernaTX, Inc., priority 2013, published 2019)
